Test results as given in PMC7661517.

biological target: hen egg white lysozyme (chicken) (UniProt P00698); assay: SPR; lysozyme immobilised on a CM5 chip by amine coupling (200 RU); Affitins injected at 15.6-500 nM; 25 °C; HBSEP pH 7.4 (10 mM Hepes, 150 mM NaCl, 2 mM EDTA, 0.05% P20); association 2 min, dissociation 7 min; apparent
Chain of UniProt P00698 (P00698 19-147): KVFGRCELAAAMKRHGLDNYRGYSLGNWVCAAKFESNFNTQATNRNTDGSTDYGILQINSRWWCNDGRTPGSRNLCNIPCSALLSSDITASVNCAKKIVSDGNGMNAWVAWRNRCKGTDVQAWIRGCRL

Point of comparison: “Affitin H4 mutant M3 (L54I-L55V-L58I) (designed binder)”, Kd 7.5 nM. Against it:
- Affitin H4 mutant M2 (L31I-F32W) (designed binder) — 59-fold higher, 440 nM
- Affitin H4 mutant M1 (F6W-F7I) (designed binder) — 1.9-fold lower, 3.98 nM
